Test results reported in paper PMC6850750 (Biochemistry, 2019).

Target: the molecule itself
Experiment: SEC

B1: YdjI (enzyme, E. coli K12)
chain: MLADIRYWENDATNKHYAIAHFNVWNAEMLMGVIDAAEEAKSPVIISFGTGFVGNTSFEDFSHMMVSMAQKATVPVITHWDHGRSMEIIHNAWTHGMNSLMRDASAFDFEENIRLTKEAVDFFHPLGIPVEAELGHVGNETVYEEALAGYHYTDPDQAAEFVERTGCDSLAVAIGNQHGVYTSEPQLNFEVVKRVRDAVSVPLVLHGASGISDADIKTAISLGIAKINIHTELCQAAMVAVKENQDQPFLHLEREVRKAVKERALEKIKLFGSDGKAE
modifications: Cys234 oxidized to cysteic acid (seen in the electron density of each subunit)
stoichiometry N: 4
